Test results as given in publication PMC8896805, “Structural insights into ligand recognition, activation, and signaling of the α2A adrenergic receptor” (Science Advances, 2022).
Values belong to the compound of their own block, whether it stands above or below them.

How the values were obtained:
α2AAR S^5.46A = conditions: cited from earlier work
α2AAR F^7.39N mutation = system: α2AAR F^7.39N mutation; parameters: method as in PMID 31801060; conditions: cited from earlier work
hybrid G protein Gαqs = hybrid G protein Gαqs (UniProt P50148)
hybrid G protein Gαqi = hybrid G protein Gαqi (UniProt P50148)

Compound: CNC[C@H](O)c1ccc(O)c(O)c1 [epinephrine]
- potency to inhibit forskolin-stimulated cAMP accumulation at S^5.46A, in words (α2AAR S^5.46A): markedly reduced the potency

Compound: NC[C@H](O)c1ccc(O)c(O)c1 [Norepi, norepinephrine]
- activity of Norepi at F^7.39N mutant, in words (α2AAR F^7.39N mutation): completely abolishes the activity

- IP accumulation (IP-One HTRF) in HEK293T cotransfected with receptor and Gαqs; Gs activity, decrease against wild-type α2AAR (hybrid G protein Gαqs): 10 fold
- IP accumulation (IP-One HTRF) in HEK293T cotransfected with receptor and Gαqi; Gi coupling activity, decrease against wild-type α2AAR (hybrid G protein Gαqi): 3 fold
Compound: chimeric receptor α2AAR-β2-TM5 (from UniProt P08913 1-232; P07550 221-232; P08913 245-465)

- IP accumulation (IP-One HTRF) in HEK293T cotransfected with receptor and Gαqs; Gs coupling activity, increase against wild-type β2AR (hybrid G protein Gαqs): > 100 fold
- IP accumulation (IP-One HTRF) in HEK293T cotransfected with receptor and Gαqi; Gi coupling activity, increase against wild-type β2AR (hybrid G protein Gαqi): > 100 fold
Compound: chimeric receptor β2AR-α2A-TM5 (from UniProt P07550 1-220; P08913 233-244; P07550 233-413)
